According to the nanobody polyreactivity screen of Harvey et al. (2022):

Assay: yeast display, Sf9 membrane polyspecificity reagent, FACS + sequencing; frameworks hold sequencing errors
Summary of the method: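 Sorting gates, low and high (top ~1%), were placed on anti-HA fluorescence to track expression and on streptavidin fluorescence to track reagent binding. A clone's polyreactivity label is taken from the gate it came out of. The reagent was 10% biotinylated, detergent-solubilized Sf9 membrane, applied for 1 hour at 4 °C to galactose-induced yeast display cells.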

Sequence | polyreactivity (PSR sort gate)
QVQLVESGGGLVQAGGSRRLSCAASGRIFGVYAMGWYRQAPGKERELVAAIDRRGGRTYYADSVKGRFTISRDNAKNTVYLQMNSLKPEDTAVYYFATARYRADMGYWGQGTQVTVSS | high polyreactivity
QVQLVESGGGLVQAGGSLRLSCAASGRTFLYYAMGWYRQAPGKERELVAAISSGADSTYYADSVKGRFTISRDNAKNTVYLQMNSLKPEDTAVYYCAAGGSHDGVWDDYWGQGTQVTVSS | high polyreactivity
QVQLVESGGGLVQAGGSLRLSCAASGLILKYYAMGWYRQAPGKEREFVAAITRRGGITYYADSVKGRFTISRDNAKNTVYLQMNSLKPEDTAVYSCAADPILGSLAYWRYSYPLYDYWGQGTQVTVSS | low polyreactivity
QVQLVESGGGLVQAGGSLRLSCAASGLTFYRNAMGWYRQAPGKEREFVAAITSTDGSTYYADSVKGRFTISRDNAKNTVYLQMNSLKPEDTAVYYCAARRRRWSGYWGQGTQVTVSS | high polyreactivity
QVQLVESGGGLVQAGGSLRLSCAASGSIFTFYAMGWYRQAPGKERELVATITWLGGSTYADAVKGRFTISRDNAKNTVYLQMNSLKPEDTAVYYCNADYRSYWYKLDYWGQGTQVTVSS | high polyreactivity
QVPLVESGGGLVQAGGSLRLSCAASGRIFYNYAMGWYRQAPGKERELVAAISGSGGSTYYADSVKGRFTISRDNAKNTVYLQMNSLKPEDSSVYYCSTSGPQYYSRNFDYWGQGTQVTVSS | low polyreactivity
QVQLVESGGGLVQAGGSLRLSCAASGNTFYGYALGWYRPAPGKERELVASITLSGDSTHYADSVKGRFTISRDNAKNTVYVQMNSLKPEDTAVYYCAGVYTYPLGYYHYTYDYWGQGTQVTVSS | low polyreactivity
QDQLVEAGGGLVQAGGSLRLSCAASGFIFSRNAMGWYRQAPGKEGELVAAISSTGGITYYADSVKGRFSISRDNAKNTVYLQLTSLKPEDTAVYFCAAGFYGYARHTWYNYWGQGTQVTVSS | high polyreactivity
QVQLVESGGGLLQAGGSLRLSCAASGFIFRRNAMGWYIQAPGKEREFVASISKSSDLTYYADSVKGRFRISRDNAKNTVYLQMNSLKPEVTAVYYCAAKVRQWRHGSYSSQYDYWGQGTQVTVSS | high polyreactivity
QVQLQESGGGLVQAGGSLRQSCAASGSIFKVVDMGLYRQAPAKEREFVATIGEGGNTYYADSVKGRFTISRDNAKNTVYLQMNSLKPEDTAVYFYAVVLGSSYSYTYWGQGTQVTVSS | low polyreactivity
QVQLVESGGGLVQAGGSLRLSCAASGTLSSYAMGWYRQAPGKERELVAAISLSGGSTYYADSVKGRFTISRDNAKNTVYLQMNSLKPEDTAVYYCAKRPKRTYYPHIGYDYWGQGTQVTVSS | low polyreactivity
QFQLVESGGGLVQAGGSLRLSCAASGRTFVINAMGWYRQAPGKERELVAAISRGGSRTFYADSVKGLFTISRDTAKNTVYLQMNSLKPVDTAVYYCNAVAQSGRYDYWGQGTQVTVSS | high polyreactivity
QVQLVESGGGLVQAGGSLRLSCAASGTFVYYAMGWYRQAPGKERELVAVISLNGGITYYADSVKGRFTISRDNAKNTVYLQMNSLKPEDTAVYYCNAQFYNSGWSFKYYYWGQGTQVTVSS | low polyreactivity
QVQLVETGGGLVQAGGSLRLSCAASGRIFGVNARGWYRQAPGKERELVAAIFSGGSTYYADSVKGRFTISRDNAKNTVYVEMNSLKPEDTAVYYCAARFARYDWSMYYWGQGTQVTVSS | low polyreactivity
QVQLVESGGGLVQAGGSLRLSCAASGFTFYYYAMGWYRQAPGKERELVAAISSGGSTNYADSVKGRFTISRDNAKNTVYLPRNSLKPEDTAVYYCAAPQPYWWAYRYDYWGQGTQVTVSS | low polyreactivity
QVQLVESGGGLVQAGGSLRLSCAASGNTFAVNAMGWYRQAPGKERELVAAISKRGGRTYYADSVKGRFTISRDNAKNTVYLQMNSLKPEDTAVYYCNTGYIFSSFYSSKYGYWGQGTQVTVSS | high polyreactivity

Sequence | polyreactivity (PSR sort gate)
QVHLVESGGGLVQAGGSLRLSCAASGGTDVGYAMGWYRQAPGKEMELDATITRRGGNTYYADSVKGRFTISRDNAKNTVYLQKNSLKPEDTAVYYCAARKKGSRVGYDYWGQGTQVTVSS | high polyreactivity
QVQHVESGGGLVHAGGRLRLRCAASGSTFVTNVMGWYSQEPGKEMELVAAISYSGGNTYYEDSEKGRFTISRDNAQNSVYLQMNSLKQEDTAVYYCAAAYKPFKKMGYWGQGTQVTVSS | high polyreactivity
HVQLVESGGGLVQAGGSLRLSCAHSGIIFRTNAMGWYRQAPGKEREFVAAISAGATRKYYADSVKGRFTISRDTAKNTVYLQMNSLKPEDTAVYYCAAASGYDYWGQGTQVTVSS | high polyreactivity
QVQLVESGGGLVQAGGSLRLSCAASGSIFDIYAMGWYRQAPGKERELVADITISGGSTYYADSVKGRFTISRDNAKNTVYLQMNSLKPEDTAVYYCKKAYLGYRYDLYDYWGQGTQVTVSS | low polyreactivity
QVQLVESAGGLVQAGGSLRLRCAASGRIFTHNAMGWYRQAPGKERELVAAITSGGRTTYADSVKGRFTISRDNAKNTVYLQMNSLKPEDSAVYYCNADTGLGSLDFDKRDYWGQGTQVTVSS | low polyreactivity
QVQLVESGGGLVQAGGSLRLSCAASGFTFTRYGMGWYRQAPGKERELVAGISSGGSTNYADSVKGRFTISRDNAKNTVYLQRNSLKPEDTAVYYCAARAKRYNVRFDYWGQGTQVTVSS | high polyreactivity
QDHLVESGGCLVQAGGSLRLSCSASGRIFRYYAMGWYRHAPGKERELVAAIRNGGSTYYADSVKGRFTISRDNAKNTVYLQMNSLKPEDTAVYYCAAGYNYVSHRCGDWGQGSQVTVSS | high polyreactivity
QVQLVESGGCLVQAGGSLRLSCAASGSIFYSYAMGWYRQAPGKEMELVADISSDGSTNYADSVKGRFTISRDNAKNTVYLQMNSLKPEDTAVYYCAKKPSSARYVTIGFDYWGQGTQVTVSS | low polyreactivity
QVQLVESGGGLDQAGGSLRLSCAASGLTFYSNAMGWYRQAPGKERELVARISTGGSTYADSVKGRFTISRDNAKNTVYLQMNSLKPEDTAVNYCAKLPPRGIDDEYWGQGTQVTVSS | low polyreactivity
QVQLVESGGGLVQAGGSLRLSCAASGFIFWGNAMGWYRQAPGKERELVAAISSSSGSTYYADSVKGRFTISRDNAKNTVYLQMNSLKPVDSAVYDCAVDTPRSYRAQGAYNYWGQGTQVTVSS | low polyreactivity
HVQLVESGGGLVQAGGSLRLSCAASGRIFGYYAIGWYRQATRKERELVAAITINGRRTYYADSVKGRFTISRDNAKNTVYLQMKSLKPEDTAVYLCTATSRYNRLGYWGQGTQVSVSS | high polyreactivity
QVQLVESGGGLVQAGGSLRLSCAASGSIFIGNTMGWYRQAPGKERELVATIRRSGSRTYYADSVKGRFTISRDNAKNTVYLQLNSLKPEDTAVYYCAADRLRSSGYKTIYDYWGQGTQVTVSS | low polyreactivity
QVQLVESGGGLVQAGGSLRLSCAASGSIFRTYTMGWYRQAPGKEREFVAAISRSGGSTYYADSVKGRFTISRDNAKNTVYLQMNSLKPEDTAVYYCNARWGLGSYGYWGQGTQVTVSS | high polyreactivity
QVHLVESGGGLVQAGGSLRLSSAASGSIFQYNAMGWYRQAPGKERELVAGITTGGDTNYADSVKGRFTISRDNAKNTVYLHMNSLKPEDTAVYYCAARFGQWVSAYDYWGQGTQVTVSS | low polyreactivity
QVQLVESGGGLVQAGGSLRLSCAASGSIFTDNAMGWYRQAPGKERELVAAITSNGGSTYYADSVKGRFTISRDNAKNTVYLQMNSLKPEDTAVYYCAADSLYREDDYWGQGTQVTVSS | low polyreactivity
QDQLVESGGGLVQAGGSLRLSCAASGRIFDDTAMGWSRPAPGKERELVAAITGGGRTNYADSVKGRFTISRDNAKNTVYLQMNSLKPEDTAVYYCAAATYGWVIYIYDYWGQGTQVTVSS | low polyreactivity
